Reference: patent US20170247448A1 (INTRINSIC LIFESCIENCES, published 2017)

Assays:
MAb 583 = biological target: T1, MAb 583; assay: C-ELISA with purified MAb 583; competitor NT-biotin hepcidin-25
T1 construct: Murine monoclonal, Protein A purified

[1] = biological target: T2, BAP070-01 (human-mouse chimeric MAb 583); assay: C-ELISA, BAP070-01 supernatant on Protein G; competitor NT-biotin hepcidin-25; four parameter fit
T2 construct: used as CHO cell supernatant; also called BAP070-1
Description: The plate was washed with TBST and one (1) ng/well of NT-biotin hepcidin-25 was mixed with different amounts (0-100 ng) of synthetic hepcidin-25 standard in TBST, 0.25% BLOTTO and added onto the plate to bind competitively. The plate was washed with TBST and SA-HRP (1:2500) added and allowed to bind for 1 hour.
The plate was washed with TBST and […] substrate added and the reaction stopped after 10 minutes with stop solution. Absorbance at 450 nm was measured on a spectrophotometer.

[2] = biological target: T2, BAP070-01 (human-mouse chimeric MAb 583); assay: C-ELISA: goat anti-human Fc coated plate, antibody captured (30 ng/well per title of FIG. 20D), unlabelled hepcidin titrated (ng/well per axis of FIG. 20D) against a labelled tracer not named for this figure; OD = tracer left on the antibody
BAP070-hum02 [3] = biological target: T3, BAP070-hum02; assay: as above
T3 construct: Expressed as soluble IgG1 in CHO cells, tested as supernatant; The entries stop inside FR4
T3 sequence (VH, as listed by the source, chain 1 of 2): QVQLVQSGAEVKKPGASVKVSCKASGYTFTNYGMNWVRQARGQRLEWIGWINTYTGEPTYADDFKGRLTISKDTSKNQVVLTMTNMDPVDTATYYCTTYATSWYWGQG
T3 sequence (VL, as listed by the source, chain 2 of 2): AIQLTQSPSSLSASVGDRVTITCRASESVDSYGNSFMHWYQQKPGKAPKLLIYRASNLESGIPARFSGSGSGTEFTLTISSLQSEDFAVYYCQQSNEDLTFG

BAP070-hum03 [4] = biological target: T4, BAP070-hum03; assay: as above
T4 construct: Expressed as soluble IgG1 in CHO cells, tested as supernatant; The entries stop inside FR4
T4 sequence (VH, as listed by the source, chain 1 of 2): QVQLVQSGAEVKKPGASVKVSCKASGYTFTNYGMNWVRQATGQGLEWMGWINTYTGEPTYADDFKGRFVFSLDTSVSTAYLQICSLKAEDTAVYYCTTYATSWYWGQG
T4 sequence (VL, as listed by the source, chain 2 of 2): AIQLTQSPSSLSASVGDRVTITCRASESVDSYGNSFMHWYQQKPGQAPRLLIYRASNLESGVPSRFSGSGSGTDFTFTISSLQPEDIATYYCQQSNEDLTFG

BAP070-hum04 [5] = biological target: T5, BAP070-hum04; assay: as above
T5 construct: Expressed as soluble IgG1 in CHO cells, tested as supernatant; The entries stop inside FR4
T5 sequence (VL, as listed by the source, chain 2 of 2): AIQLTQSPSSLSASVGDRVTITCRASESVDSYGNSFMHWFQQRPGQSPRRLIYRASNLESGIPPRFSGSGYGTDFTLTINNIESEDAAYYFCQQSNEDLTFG

BAP070-hum05 [6] = biological target: T6, BAP070-hum05; assay: as above
T6 construct: Expressed as soluble IgG1 in CHO cells, tested as supernatant; The entries stop inside FR4
T6 sequence (VH, as listed by the source, chain 1 of 2): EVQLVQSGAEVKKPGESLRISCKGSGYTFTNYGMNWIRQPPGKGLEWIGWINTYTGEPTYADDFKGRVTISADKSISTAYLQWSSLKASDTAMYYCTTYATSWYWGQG
T6 sequence (VL, as listed by the source, chain 2 of 2): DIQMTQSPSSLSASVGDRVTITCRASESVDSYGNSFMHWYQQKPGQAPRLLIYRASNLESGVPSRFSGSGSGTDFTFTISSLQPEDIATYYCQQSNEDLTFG

BAP070-hum06 [7] = biological target: T7, BAP070-hum06; assay: as above
T7 construct: Expressed as soluble IgG1 in CHO cells, tested as supernatant; The entries stop inside FR4

[8] = biological target: T2, BAP070-01 (human-mouse chimeric MAb 583); assay: C-ELISA: goat anti-human Fc coated plate, antibody captured, unlabelled hepcidin titrated against a labelled tracer not named for this figure; the EC50 row has 7 cells under 8 columns and is assigned in order to the 7 antibodies with human Fc
BAP070-hum01 = biological target: T8, BAP070-hum01; assay: as above
T8 construct: Expressed as soluble IgG1 in CHO cells, tested as supernatant; The entries stop inside FR4 (...WGQG / ...FG); also called humanized hit 1

BAP070-hum02 [9] = biological target: T3, BAP070-hum02; assay: as above
BAP070-hum03 [10] = biological target: T4, BAP070-hum03; assay: as above
BAP070-hum04 [11] = biological target: T5, BAP070-hum04; assay: as above
BAP070-hum05 [12] = biological target: T6, BAP070-hum05; assay: as above
BAP070-hum06 [13] = biological target: T7, BAP070-hum06; assay: as above

T2 sequence (VH, as listed by the source, chain 1 of 2): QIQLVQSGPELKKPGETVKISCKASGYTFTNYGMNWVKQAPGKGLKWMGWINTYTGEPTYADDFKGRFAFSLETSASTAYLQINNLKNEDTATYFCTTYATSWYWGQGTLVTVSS
T2 sequence (VL, as listed by the source, chain 2 of 2): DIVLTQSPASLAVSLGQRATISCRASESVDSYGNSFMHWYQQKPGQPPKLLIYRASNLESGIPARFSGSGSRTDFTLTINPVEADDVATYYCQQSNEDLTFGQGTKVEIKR
T1 sequence (VH, as listed by the source, chain 1 of 2): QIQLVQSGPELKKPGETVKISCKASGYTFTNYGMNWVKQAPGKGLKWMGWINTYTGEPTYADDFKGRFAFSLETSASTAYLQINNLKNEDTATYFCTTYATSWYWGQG
T1 sequence (VL, as listed by the source, chain 2 of 2): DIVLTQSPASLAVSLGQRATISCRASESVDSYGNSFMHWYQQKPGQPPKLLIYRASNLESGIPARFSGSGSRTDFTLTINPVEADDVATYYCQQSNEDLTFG

EC50 (MAb 583): ≤ 0.005 µg/mL
EC50 [1]: 0.054 µg/mL
OD450 at 0.000 ng/well hepcidin [2]: 2.88
OD450 at 0.137 ng/well hepcidin [2]: 2.77
OD450 at 0.412 ng/well hepcidin [2]: 2.65
OD450 at 1.235 ng/well hepcidin [2]: 1.77
OD450 at 3.704 ng/well hepcidin [2]: 0.826
OD450 at 11.111 ng/well hepcidin [2]: 0.334
OD450 at 33.333 ng/well hepcidin [2]: 0.125
OD450 at 100.000 ng/well hepcidin [2]: 0.0442
OD450 at 0.000 ng/well hepcidin (BAP070-hum02 [3]): 0.812
OD450 at 0.137 ng/well hepcidin (BAP070-hum02 [3]): 0.844
OD450 at 0.412 ng/well hepcidin (BAP070-hum02 [3]): 0.814
OD450 at 1.235 ng/well hepcidin (BAP070-hum02 [3]): 0.539
OD450 at 3.704 ng/well hepcidin (BAP070-hum02 [3]): 0.279
OD450 at 11.111 ng/well hepcidin (BAP070-hum02 [3]): 0.125
OD450 at 33.333 ng/well hepcidin (BAP070-hum02 [3]): 0.0475
OD450 at 100.000 ng/well hepcidin (BAP070-hum02 [3]): 0.0189
OD450 at 0.000 ng/well hepcidin (BAP070-hum03 [4]): 2.13
OD450 at 0.137 ng/well hepcidin (BAP070-hum03 [4]): 2.1
OD450 at 0.412 ng/well hepcidin (BAP070-hum03 [4]): 1.96
OD450 at 1.235 ng/well hepcidin (BAP070-hum03 [4]): 1.48
OD450 at 3.704 ng/well hepcidin (BAP070-hum03 [4]): 0.653
OD450 at 11.111 ng/well hepcidin (BAP070-hum03 [4]): 0.281
OD450 at 33.333 ng/well hepcidin (BAP070-hum03 [4]): 0.0983
OD450 at 100.000 ng/well hepcidin (BAP070-hum03 [4]): 0.0359
OD450 at 0.000 ng/well hepcidin (BAP070-hum04 [5]): 0.433
OD450 at 0.137 ng/well hepcidin (BAP070-hum04 [5]): 0.446
OD450 at 0.412 ng/well hepcidin (BAP070-hum04 [5]): 0.415
OD450 at 1.235 ng/well hepcidin (BAP070-hum04 [5]): 0.301
OD450 at 3.704 ng/well hepcidin (BAP070-hum04 [5]): 0.148
OD450 at 11.111 ng/well hepcidin (BAP070-hum04 [5]): 0.0719
OD450 at 33.333 ng/well hepcidin (BAP070-hum04 [5]): 0.0303
OD450 at 100.000 ng/well hepcidin (BAP070-hum04 [5]): 0.0135
OD450 at 0.000 ng/well hepcidin (BAP070-hum05 [6]): 0.972
OD450 at 0.137 ng/well hepcidin (BAP070-hum05 [6]): 0.917
OD450 at 0.412 ng/well hepcidin (BAP070-hum05 [6]): 0.88
OD450 at 1.235 ng/well hepcidin (BAP070-hum05 [6]): 0.625
OD450 at 3.704 ng/well hepcidin (BAP070-hum05 [6]): 0.273
OD450 at 11.111 ng/well hepcidin (BAP070-hum05 [6]): 0.125
OD450 at 33.333 ng/well hepcidin (BAP070-hum05 [6]): 0.0505
OD450 at 100.000 ng/well hepcidin (BAP070-hum05 [6]): 0.0195
OD450 at 0.000 ng/well hepcidin (BAP070-hum06 [7]): 1.11
OD450 at 0.137 ng/well hepcidin (BAP070-hum06 [7]): 1.1
OD450 at 0.412 ng/well hepcidin (BAP070-hum06 [7]): 0.961
OD450 at 1.235 ng/well hepcidin (BAP070-hum06 [7]): 0.72
OD450 at 3.704 ng/well hepcidin (BAP070-hum06 [7]): 0.369
OD450 at 11.111 ng/well hepcidin (BAP070-hum06 [7]): 0.154
OD450 at 33.333 ng/well hepcidin (BAP070-hum06 [7]): 0.0599
OD450 at 100.000 ng/well hepcidin (BAP070-hum06 [7]): 0.0238
EC50 [8]: 0.0174 µg/mL
EC50 (BAP070-hum01): 0.0237 µg/mL
EC50 (BAP070-hum02 [9]): 0.0179 µg/mL
EC50 (BAP070-hum03 [10]): 0.0205 µg/mL
EC50 (BAP070-hum04 [11]): 0.0191 µg/mL
EC50 (BAP070-hum05 [12]): 0.0188 µg/mL
EC50 (BAP070-hum06 [13]): 0.0186 µg/mL
B1: Human hepcidin peptide (hepcidin-25) (peptide)
peptide: DTHFPICIFCCGCCHRSKCGMCCKT
notes: Synthetic 25 aa peptide; also called hep-25; Hep-25
